Source: the supplement of paper PMC10126150
± gives the standard deviation of the averaged measurements.

System: ATP
Experiment: switch fluorescence ratio, 500 uM ATP over buffer (Cy3 cluster intensity, sum of 5 cycles each) (fold (ratio)); higher = stronger signal-on switching upon ATP binding; sequences stand for … in TCGTCGGCAGCGTCAGATGTGTATAAGAGACAGTTTTTTTTTTTTTTTTTTTTTTTTT…TC
Settings: aptamer strand: ATP DNA aptamer (quencher-CACCTGGGGGAGTATTGCGGAGGAAGG + anchor), 100 nM annealed; ATP concentration: 500 uM
How it was run: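 Five buffer/ATP imaging cycles were run on Cy3-labelled switching-strand clusters on a modified Illumina MiSeq flow-cell, with NaOH stripping and re-annealing between cycles. In each cycle, clusters annealed to 100 nM quencher-labelled ATP aptamer were imaged in selection buffer, then after 15 min with 500 uM ATP at 22 °C. Per cluster, the fluorescence ratio is summed target-cycle over summed buffer-cycle Cy3 intensity, averaged per switch-domain sequence. Only clusters within 100-1000 RFU were kept.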
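Note: ATP exposure 15 min at 22 °C before imaging.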

Row | Sequence | switch fluorescence ratio
1 | ACGAGGGTGG | 1.065 ± 0.0084
2 | ACGAGGGTTG | 1.01 ± 0.026
3 | ACGAGTAGGC | 0.986 ± 0.021
4 | ACGAGTTAGT | 0.9933 ± 0.0045
5 | ACGATCCACG | 1.04 ± 0.045
6 | ACGATCGGCT | 1.06 ± 0.2
7 | ACGATGAGGA | 0.982 ± 0.07
8 | ACGATGTGCT | 0.982 ± 0.015
9 | ACGATTATTC | 1.07 ± 0.039
10 | ACGATTTAAG | 1.03 ± 0.05
11 | ACGCATTATT | 1.62 ± 0.051
12 | ACGCATTCAA | 1.236 ± 0.0039
13 | ACGCATTGGT | 1.188 ± 0.0086
14 | ACGCCCACGT | 1.22 ± 0.038
15 | ACGCCCACTA | 1.38 ± 0.1
16 | ACGCCCTGGC | 1.04 ± 0.045
17 | ACGCGACATT | 1.12 ± 0.039
18 | ACGCGACGG | 1.13 ± 0.018
19 | ACGCGATATG | 1.253 ± 0.01
20 | ACGCGCCGGG | 1.063 ± 0.0039
21 | ACGCGGACAC | 1.22 ± 0.065
22 | ACGCGGGACA | 1.04 ± 0.014
23 | ACGCGGGGGT | 1.07 ± 0.069
24 | ACGCGTCGGC | 1.06 ± 0.013
25 | ACGCTAAATA | 1.26 ± 0.03
26 | ACGCTACATT | 1.39 ± 0.031

Row | Sequence | switch fluorescence ratio
27 | ACGCTCCTGG | 1.15 ± 0.034
28 | ACGCTGCCAG | 1.04 ± 0.02
29 | ACGCTTAGAC | 1.66 ± 0.24
30 | ACGCTTGTGC | 1.08 ± 0.042
31 | ACGGAACAGC | 1.11 ± 0.13
32 | ACGGAAGGGA | 0.991 ± 0.036
33 | ACGGAAGGGT | 1.04 ± 0.043
34 | ACGGAAGGTT | 1.03 ± 0.043
35 | ACGGAATATT | 1.171 ± 0.0019
36 | ACGGACGGGG | 1.11 ± 0.036
37 | ACGGAGGGCT | 1.02 ± 0.015
38 | ACGGAGTTAC | 1.84 ± 0.18
39 | ACGGCAAGGG | 1.15 ± 0.063
40 | ACGGCACTCG | 1.4 ± 0.1
41 | ACGGCAGAGG | 1.09 ± 0.02
42 | ACGGCATTAA | 1.165 ± 0.0043
43 | ACGGCATTGC | 1.19 ± 0.037
44 | ACGGCCACTG | 1.07 ± 0.019
45 | ACGGCCGGGA | 1.02 ± 0.026
46 | ACGGCCTGGG | 1.03 ± 0.03
47 | ACGGCGAGGG | 1.02 ± 0.039
48 | ACGGCTTAGG | 1.03 ± 0.034
49 | ACGGGACGGC | 1.04 ± 0.14
50 | ACGGGACTAG | 1.02 ± 0.099
51 | ACGGGAGGGG | 1.04 ± 0.048
52 | ACGGGATG | 1.039 ± 0.0044

Row | Sequence | switch fluorescence ratio
53 | ACGGGATGGG | 1.062 ± 0.01
54 | ACGGGCAGGG | 1.03 ± 0.041
55 | ACGGGCCTTG | 0.987 ± 0.0063
56 | ACGGGCTGGG | 1.1 ± 0.02
57 | ACGGGCTGTG | 1.01 ± 0.054
58 | ACGGGCTTCG | 1.05 ± 0.049
59 | ACGGGGACGG | 1.03 ± 0.042
60 | ACGGGGGAAC | 1.046 ± 0.0071
61 | ACGGGGGCCT | 1.014 ± 0.0045
62 | ACGGGGGGAG | 1.01 ± 0.035
63 | ACGGGGGGCG | 0.984 ± 0.052
64 | ACGGGGGGCT | 0.995 ± 0.057
65 | ACGGGGGTAG | 0.989 ± 0.022
66 | ACGGGGGTTC | 1.01 ± 0.012
67 | ACGGGGTAAA | 1.004 ± 0.009
68 | ACGGGGTCAC | 1.026 ± 0.0017
69 | ACGGGGTGCA | 0.99 ± 0.017
70 | ACGGGGTGTT | 1 ± 0.04
71 | ACGGGGTTGC | 1.01 ± 0.017
72 | ACGGGGTTGG | 1.03 ± 0.024
73 | ACGGGTAATC | 1.071 ± 0.0095
74 | ACGGGTAGAC | 1.0808 ± 0.001
75 | ACGGGTAGCA | 0.999 ± 0.016
76 | ACGGGTGGCA | 0.986 ± 0.019
77 | ACGGGTGGGT | 1.08 ± 0.15
78 | ACGGGTTGAG | 1.03 ± 0.029

Row | Sequence | switch fluorescence ratio
79 | ACGGTAGAAA | 1.01 ± 0.012
80 | ACGGTGAGGG | 1.02 ± 0.026
81 | ACGGTTAAGG | 1.03 ± 0.019
82 | ACGGTTCGGA | 1.02 ± 0.019
83 | ACGGTTGTGC | 1.01 ± 0.04
84 | ACGGTTGTTC | 1.027 ± 0.005
85 | ACGTAAAGAC | 1.17 ± 0.23
86 | ACGTACTTGA | 1.52 ± 0.085
87 | ACGTAGTTTC | 1.05 ± 0.023
88 | ACGTATAGAG | 0.991 ± 0.042
89 | ACGTATCCGG | 0.9932 ± 0.0067
90 | ACGTCAAAAC | 2.91 ± 0.41
91 | ACGTCAGTCA | 0.976 ± 0.023
92 | ACGTCGGAG | 0.995 ± 0.046
93 | ACGTCGGGTG | 1.25 ± 0.15
94 | ACGTCGTAGG | 1.05 ± 0.016
95 | ACGTCTTTGG | 1.02 ± 0.043
96 | ACGTGACGGG | 1.07 ± 0.029
97 | ACGTGGAAGC | 1.04 ± 0.043
98 | ACGTGTTGGC | 1.02 ± 0.052
99 | ACGTTAAGTT | 1.1 ± 0.029
100 | ACGTTAGTCG | 0.9687 ± 0.0095
101 | ACGTTGATGG | 0.9882 ± 0.0095
102 | ACGTTGCCAG | 0.963 ± 0.019
103 | ACGTTTGCG | 0.98 ± 0.04
104 | ACGTTTGGAT | 1.02 ± 0.027

Row | Sequence | switch fluorescence ratio
105 | ACGTTTGTCC | 1.03 ± 0.022
106 | ACGTTTTTTT | 0.988 ± 0.035
107 | ACTAAAGGGG | 1.04 ± 0.021
108 | ACTAACTAAT | 1.06 ± 0.056
109 | ACTAAGTAAC | 1.04 ± 0.037
110 | ACTAAGTCTG | 1.02 ± 0.045
111 | ACTAATGGTT | 1.03 ± 0.022
112 | ACTACCTACA | 1.364 ± 0.0065
113 | ACTACGTCGG | 1.08 ± 0.044
114 | ACTACTGCTG | 1.05 ± 0.0044
115 | ACTACTGGTT | 1.03 ± 0.03
116 | ACTAGCTTGT | 1.04 ± 0.026
117 | ACTAGGATGG | 0.99 ± 0.026
118 | ACTAGGTCCG | 1.005 ± 0.0016
119 | ACTAGTCACG | 1.072 ± 0.0093
120 | ACTATATAAT | 1.08 ± 0.014
121 | ACTATCGGGA | 1.02 ± 0.037
122 | ACTATGAAAA | 1.037 ± 0.0011
123 | ACTATGGCCC | 1.03 ± 0.017
124 | ACTATGGCGG | 1.03 ± 0.032
125 | ACTATGGTAA | 0.9704 ± 0.008
126 | ACTATTAATC | 1 ± 0.02
127 | ACTATTGCGG | 1.01 ± 0.025
128 | ACTATTTTTG | 0.9745 ± 0.0067
129 | ACTCACGGAG | 1.16 ± 0.036
130 | ACTCAGATTG | 1.05 ± 0.056

Row | Sequence | switch fluorescence ratio
131 | ACTCATAATT | 1.0222 ± 0.00042
132 | ACTCATGATG | 0.99 ± 0.024
133 | ACTCCGTCTT | 1.441 ± 0.0027
134 | ACTCCTCTTT | 1.093 ± 0.0093
135 | ACTCCTGTAA | 1.13 ± 0.11
136 | ACTCCTTGCT | 1.24 ± 0.018
137 | ACTCGAAGGG | 1.02 ± 0.042
138 | ACTCGACCTT | 1.21 ± 0.15
139 | ACTCGCAGGG | 1.073 ± 0.0016
140 | ACTCGGAATT | 1.12 ± 0.019
141 | ACTCTAAAAA | 1.05 ± 0.012
142 | ACTCTCGAGG | 1.24 ± 0.34
143 | ACTCTGGCGT | 1.08 ± 0.024
144 | ACTCTGGGGG | 1.07 ± 0.092
145 | ACTCTTGCGG | 1.01 ± 0.016
146 | ACTCTTGTTT | 1.03 ± 0.014
147 | ACTGACAGCG | 1.0189 ± 0.00036
148 | ACTGAGGAAA | 1.01 ± 0.046
149 | ACTGAGGTAA | 0.95 ± 0.043
150 | ACTGAGTTTG | 1 ± 0.016
151 | ACTGATCAGA | 0.99427 ± 0.00038
152 | ACTGATCGCG | 1.02 ± 0.034
153 | ACTGATGGTA | 1.02 ± 0.025
